# From the nanobody polyreactivity screen of Harvey et al. (2022)
# Test: yeast display, Sf9 membrane polyspecificity reagent, FACS + sequencing; frameworks hold sequencing errors
# Summary of the method: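 After 36–48 hours of galactose induction, yeast (Saccharomyces cerevisiae BJ5465) displaying a synthetic nanobody library were stained at 4 °C for 1 hour with 10% biotinylated, detergent-solubilized Sf9 membrane reagent. Streptavidin microbeads enriched the stained cells before FACS sorting into low and high (top ~1%) gates on anti-HA and streptavidin fluorescence. Each clone's polyreactivity label reflects its gate of origin.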
row,Sequence,polyreactivity (PSR sort gate)
1,QVQLVDSGGGLVQAGGSLRLSCAASGNTFRIYAMAWYRQAPGKERELVAAISQSGGSTYYADSVKGRFTISRDNAKNTVYLQMNSLKPEDTAVYYCAATGARRKFYYWGQGTQVTVSS,high polyreactivity
2,QVQLVDSGGGLVQAGGSLRLSCAASGRIFHVYAMGWYRKAPGKERELLADITWSGGSTYYADSVKGRFTISRDNAKNTVYLQMNSLKPEDTAVYYCAAAYYGYARWRGPRKMDYWGQGTQVTVSS,high polyreactivity
3,QVQLVDSGGGLVQAGGSLRLSCAASGRIFRYYAMGWYRQAPGKERELVAGINQSGGSTYYADSVKGRFTISRDNAKNTVYLQMNSLKPEDTAVYYCAAKVSWPKYDYWGQGTQVTVSS,low polyreactivity
4,QVQLVDSGGGLVQAGGSLRLSCAASGRIFSRYAMGWYRQAPGKERELVASISYSGGSTNYADSVKGRFTISRDNAKNTFYLQMNSLKPEDTAVYYCAAGQYSYRRRYNYWGQGTQVTVSS,high polyreactivity
5,QVQLVDSGGGLVQAGGSLRLSCAASGRIFYRYAMGWYRQAPGKERELVATISRGGITNYADSVKGRFTISRDNAKNTVYLEMNSLKPEDTAVYYCNAVYGFRRLFEYEYDYWGQGTQVTVSS,high polyreactivity
6,QVQLVDSGGGLVQAGGSLRLSCAASGRNFNEYAMGWSRPAPGKERELVAAISSSGDSTYYADSVKGRFTISRDNAKNTVYLQMNSLKPEDTAVYYGAAQVVVWYPYVYFPGSDYWGQGTQVTVSS,low polyreactivity
7,QVQLVDSGGGLVQAGGSLRLSCAASGRTFGKNVMGWYREAPGKERELVAAISLSGGSTYYADSVKGRFTISRDNAKNTVYLQMNSLKPEDTAVYYCAAAAYGKPWGLDYWGQGTQVTVSS,low polyreactivity
8,QVQLVDSGGGLVQAGGSLRLSCAASGRTFKPYTMGWYRQAPGKERDLVAAISARGVSTYYADSVKGRFTISRDNAKNTGYLQMNSLKPEDTAVYYCNRVYFIGYRVFPPPMDYWGQGTQVTVSS,high polyreactivity
9,QVQLVDSGGGLVQAGGSLRLSCAASGRTFNLYAMGWYRQAPGKERELVATIDWTGGSTYYADSVKGRFTISRDNAKNTVYLQMNSLKPEDTAVYYCNADRFADYDYWGQGTQVTVSS,low polyreactivity
10,QVQLVDSGGGLVQAGGSLRLSCAASGRTFRYYAMGSYRQAPGKERELVAAISGRGGSTYYADSVKGRFTISRDNAKNTVYLLMNSLKPADTAVYYCAKRGYYRSRRYDYWGQGTQVTVSS,high polyreactivity
11,QVQLVDSGGGLVQAGGSLRLSCAASGRTFSANAMGWYRQAPGKERELVAGITSRGGGTYYADSVKGRFTISRDNAKNTVYLQMNSLKTEDTAVYYGAKASRYWSLYYWGQGTQVTVSS,high polyreactivity
12,QVQLVDSGGGLVQAGGSLRLSCAASGRTFYGNAMGWYRQAPGKARELVAAINRDGGTYYADSVKGRFTISRDNAKNTVYLQMNSLKPEDTAVYYCNAVKRGIRYGYWGQGTQVTVSS,high polyreactivity
13,QVQLVDSGGGLVQAGGSLRLSCAASGRTFYPYVMGWYRQPPGKERELVADISWSGGRTYYADSVKGRFTISRDNAKNTVYLQMNSLKPEDTAVYYCAAGYRRRYNYWGQGTQVTVSS,high polyreactivity
14,QVQLVDSGGGLVQAGGSLRLSCAASGRTIGINPMGWYRQAPGKERELVASITRSVGSTYDADSVKGRFTISRDNAKNTVYLQMNSLKPEDTEVYYCAAEYYTWSYYTKYYYWGQGTQVTVSS,high polyreactivity
15,QVQLVDSGGGLVQAGGSLRLSCAASGRTIPYYAMGWYRQAPGKERELVAAISSSGGRTYYADSVKGRFTISRDNAKNTVYLQMNSLKPEDTAVYYCNVDAWYPYQGFLVGYYYWGQGTQVTVSS,low polyreactivity
16,QVQLVDSGGGLVQAGGSLRLSCAASGRTIWRNAMGWYRQAPGKERELVAAIRWSGGRTYADSVKGRFTISRDKAKNTVYLQMNILKPEDTAVYYCNARGLSDWTLKLDYWGQGTQVTVSS,low polyreactivity
17,QVQLVDSGGGLVQAGGSLRLSCAASGRTIYNYDMGWYRQAPGKERELVARIFSGGSTNYADSVKGRFTISRDNAKNTVYLQMNSLKPEDTAVYYCNAVLESQFIGWKFFYWGQGTQVSVSS,high polyreactivity
18,QVQLVDSGGGLVQAGGSLRLSCAASGSIFGSYAMGWYRQAPGKERELVAGISGRGGSTYYADSVKGRFTISRDNAKNTVYLQMNSLKPEDTAVYYCAAGRRNGWLIPHYYWGQGTQVTVSS,high polyreactivity
19,QVQLVDSGGGLVQAGGSLRLSCAASGSIFGYYAMGWYRQAPGKERELVAAINSGSSTNYADSVKGRFTISRDNAKNTVYLQMNSLKPEDTAVYYCNKDPWYVFHPRGLFLFDYWGQGTQVTVSS,low polyreactivity
20,QVQLVDSGGGLVQAGGSLRLSCAASGSIFIINAKGWYRQSPGKERELVAAINSGGSTKYADSVKGRFTISRDNAKNTVYLQMNSLKPEDTAVYYCNAGSRPTAGGMDSWGQGTQVTVSS,low polyreactivity
21,QVQLVDSGGGLVQAGGSLRLSCAASGSIFQRYAMGWYRQAPGKERELVAGINWSGGRTYYADSVKGRFTISRDNAKNTVYLQMNSLKPEDTAVYYCAAARYTRYDYWGQGTQVTVSS,high polyreactivity
22,QVQLVDSGGGLVQAGGSLRLSCAASGSIFSYYAMGWYRPAPGTERELVAGLSWGGGRTYYADSVKGRFTISRDNAKNTVYLQMNSLKQEDTAVYYCAARLTGLDYWGQGTQVTVSS,high polyreactivity

row,Sequence,polyreactivity (PSR sort gate)
1,QVQLVDSGGGLVQAGGSLRLSCAASGSIFTYNGKVWYRQAPGKEREFVAAITWTGGSTYADSVKGRFTISSDNSNNTVYLQMNSLKREDTAVYYCAAVRRISWYTPVNTRRYYYWGQGTQVTVSS,high polyreactivity
2,QVQLVDSGGGLVQAGGSLRLSCAASGSIIGLYAMGWYRQAPGKERELVAAITTTGGSTYYADSVKGRFTISRDNAKNTVYLQMNSLKPEDTAVYYCNADYVAYGPEYDYWGQGTQVTVSS,low polyreactivity
3,QVQLVDSGGGLVQAGGSLRLSCAASGSITYYAMGWYRQAPGKERELVAAISSSGGSTYYADSVKGRFTISRDNAKNTVYLQMNSLKPEDTAVYYCAAYGRYGAHTGYGSWGQGTQVTVSS,high polyreactivity
4,QVQLVDSGGGLVQAGGSLRLSCAASGSTFPNNAMGRYRQAPGKERELVAAITTRGGSTYYADSVKGRFTISRDNAKNTVYLQMNSLKAEDTAVYYCAKRRRSAAPKYDYWGQGTQVTVSS,high polyreactivity
5,QVQLVDSGGGLVQAGGSLRLSCAASGSTFTSYAMGWYRQAPGKERELVAAITGSGGRTYYADSVKGRFTISRDNAKNTVYLQMNSLKPEDTAVYYCAARKVRTVYQSRGNYWGQGTLVTVSS,high polyreactivity
6,QVQLVDSGGGLVQAGGSLRLSCAASGSTFYGYAMGWYRQAPGKERELVAAITSSGTRTYYADSVKGRITISRDNAKNSVYLQMNSLKPEDTAVYYCAADAPNFGLYRDKDYDYWGQGTQVTVSS,high polyreactivity
7,QVQLVDSGGGLVQAGGSLRLSCAASGSTFYWYPMGWYRQAPGKERELVAAISRSSGSTYYADSVKGRFTISRDNAKNTVYLQMNSLTPEDTAVYYCAADYYLRSFVWTAYDSWGHGTQVTVSS,high polyreactivity
8,QVQLVDSGGGLVQAGGSLRLSCAASGSTYSPNAMGWNRQAPGKERELVAAITGGGSTTYADSVQGRFTISRDNATNTVYLQMNSLKPEETAVYYCNTDGPRYARPFDSWGQGTQVTVSS,low polyreactivity
9,QVQLVDSGGGLVQAGGSLRLSCAASGYIFPWYVKGWYRQAPVKERELVAAISWSGGSTYYADSVKGRFTISRDNAKNTVYLQMKSLKPEDTAVYYCNAVRTYRDVSYNSWGQGTQVNVSS,high polyreactivity
10,QVQLVDSGGGLVQAGGSLRLSCAASGYIFRVYAMGWYRQAPGKERELVAAISGSGGRTYYADSVKGRFTISRDNAKNTVYLQMNSLKPEDTAVYYCAAYRVSDYDYWGQGTQVTVSS,high polyreactivity
11,QVQLVDSGGGLVQAGGSLRLSCAASGYTFPSKTMGWYRQAPGKERELVAAISGGGRTYYADSVKGRFTISRDNAKNTVYLQMNCLKPEDSAVYYCAKDSWYTQNRYNYWGQGTQVNVSS,low polyreactivity
12,QVQLVDSGGGLVQAGGSLRLSCAASVITFGYYAMGWYRQAPGKERELVAAISRSGGNTRYADSVKGRFTISRDNAKNTVYLQMNSLKTDDTAVYYCAKRTTYSDDYWGQGTQVTVSS,high polyreactivity
13,QVQLVDSGGGLVQAGGSLRLSCADSGRTFYTNAMGWYRQAPGKERELVAAIDISGSTYYADSVKGRFTISRDNAKNTVYLQMNSLKPEDTAVYYCNVDTVCLGGEKGGYYWGQGSQVTVSS,low polyreactivity
14,QVQLVDSGGGLVQAGGSLRLSCAPSGYIFPYNAMGWYRQAPGKEREFVAAITSSGGSTYYADSVKGRFTISRENAKNTVYLQMNSLKPEDTAVYYCARVPLHRYGYWGQGTQVNVSS,high polyreactivity
15,QVQLVDSGGGLVQAGGSLRLSCDASGITFYDYAMGLYRQAPGKEMEFVASITSSGGYTYYADSVKGRFTISRDNAKNTVYLQMNILKPEDTSVYYCNVRYKRNRWQYDYWGQGTQVTVSS,high polyreactivity
16,QVQLVDSGGGLVQAGGSLRLSCDASGSIFFWYTMGWYRQAPGKESELVATITGSGSSTTYADSVKGRFTISRDNAKNTVYLQMISLKPEDTAVYYCAAADIIDHSFPYDYWGLGTQVTVSS,low polyreactivity
17,QVQLVDSGGGLVQAGGSLRLSSAASGFTLLYNAMGSYRQAPGKERELVSTITGGGTTYADSVKGRFTISRDNAKNTVYLQMNSLKPEDTAVYYCATSRVWRLYRYLPQYRGYYYWGQGTQVTVSS,high polyreactivity
18,QVQLVDSGGGLVQAGGSLRLSSAASGSTFRYYAMGWYRQAPGKERELVAAISRSGGRTYYADSVKWRFTISRDKAKNTVYLQINSLKPEDNAVYYCNKDSRASPYGYWGQGTQVTVSS,high polyreactivity
19,QVQLVDSGGGLVQAGGSLRLTCAASGIIIPVYAMGWYRQAPGKERELVAAISSGGSTYYADSVKGRFTISRDNAKNTVYLQINSLKPEDTAVYYCAARKVRYPYRWYDYWGQGTQVTVSS,high polyreactivity
20,QVQLVDSGGGLVQAGGSLRLTCAASGRIFCDNAMGWYRQEPGKERELVAAISDSVVITYYADSVKGRFTISRDNAKNTVYLQMNSLKPEDTAVYYCAADKRGTVYLSSFWMDYWGQGTQVTVSS,low polyreactivity
21,QVQLVDSGGGLVQAGGSLRLTCAASGRTFYGNAMGWYRQAPGKERELVATINYSGGSTYYADSVKGRFTISRDNAKNTVYLQMNSLKPEDTAVYYCAADDPEEFDYWGQGTQVTVSS,low polyreactivity
